B1: Dbf4 (natural protein, S. cerevisiae)
chain: MVSPTKMIIRSPLKETDTNLKHNNGIAASTTAAGHLNVFSNDNNCNNNNTTESFPKKRSLERLELQQQQHLHEKKRARIERARSIEGAVQVSKGTGLKNVEPRVTPKELLEWQTNWKKIMKRDSRIYFDITDDVEMNTYNKSKMDKRRDLLKRGFLTLGAQITQFFDTTVTIVITRRSVENIYLLKDTDILSRAKKNYMKVWSYEKAARFLKNLDVDLDHLSKTKSASLAAPTLSNLLHNEKLYGPTDRDPRTKRDDIHYFKYPHVYLYDLWQTWAPIITLEWKPQELTNLDELPYPILKIGSFGRCPFIGDRNYDESSYKRVVKRYSRDKANKKYALQLRALFQYHADTLLNTSSVNDQTKNLIFIPHTCNDSTKSFKKWMQEKAKNFEKTELKKTDDSAVQDVRNEHADQTDEKNSILLNETETKEPPLKEEKENKQSIAEESNKYPQRKELAATPKLNHPVLATFARQETEEVPDDLCTLKTKSRQAFEIKASGAHQSNDVATSFGNGLGPTRASVMSKNMKSLSRLMVDRKLGVKQTNGNNKNYTATIATTAETSKENRHRLDFNALKKDEAPSKETGKDSAVHLETNRKPQNFPKVATKSVSADSKVHNDIKITTTESPTASKKSTSTNVTLHFNAQTAQTAQPVKKETVKNSGYCENCRVKYESLEQHIVSEKHLSFAENDLNFEAIDSLIENLRFQI
notes: Dbf4, S. cerevisiae; Subunit as it stands in DDK in the DH-DDK cryo-EM structure; also called Dbf4 subunit of DDK; CBP-Dbf4; source: S. cerevisiae, overexpressed with Cdc7, purified as DDK

Tests used:
Assay in all cases: cryo-EM structure; DH loaded with ORC, Cdc6 and Mcm2-7-Cdt1 (96 nM each) on MH-capped ARS1 DNA (8 nM) in buffer B at 30 °C, then 289 nM DDK for 50 min before plunge-freezing; neither crosslinking nor nucleotide analogs
Details in all cases: both partners purified
Mcm4 = biological target: T1, Mcm4 (S. cerevisiae, UniProt P30665 1-933)
T1 construct: Mcm4, S. cerevisiae; Subunit as it stands in the DH of the cryo-EM structures; modelled from residue 155 in the DDK-engaged model; also called Mcm4 subunit; source: S. cerevisiae, overexpressed as Mcm2-7-Cdt1, purified; in the DNA-loaded double hexamer
T1 sequence: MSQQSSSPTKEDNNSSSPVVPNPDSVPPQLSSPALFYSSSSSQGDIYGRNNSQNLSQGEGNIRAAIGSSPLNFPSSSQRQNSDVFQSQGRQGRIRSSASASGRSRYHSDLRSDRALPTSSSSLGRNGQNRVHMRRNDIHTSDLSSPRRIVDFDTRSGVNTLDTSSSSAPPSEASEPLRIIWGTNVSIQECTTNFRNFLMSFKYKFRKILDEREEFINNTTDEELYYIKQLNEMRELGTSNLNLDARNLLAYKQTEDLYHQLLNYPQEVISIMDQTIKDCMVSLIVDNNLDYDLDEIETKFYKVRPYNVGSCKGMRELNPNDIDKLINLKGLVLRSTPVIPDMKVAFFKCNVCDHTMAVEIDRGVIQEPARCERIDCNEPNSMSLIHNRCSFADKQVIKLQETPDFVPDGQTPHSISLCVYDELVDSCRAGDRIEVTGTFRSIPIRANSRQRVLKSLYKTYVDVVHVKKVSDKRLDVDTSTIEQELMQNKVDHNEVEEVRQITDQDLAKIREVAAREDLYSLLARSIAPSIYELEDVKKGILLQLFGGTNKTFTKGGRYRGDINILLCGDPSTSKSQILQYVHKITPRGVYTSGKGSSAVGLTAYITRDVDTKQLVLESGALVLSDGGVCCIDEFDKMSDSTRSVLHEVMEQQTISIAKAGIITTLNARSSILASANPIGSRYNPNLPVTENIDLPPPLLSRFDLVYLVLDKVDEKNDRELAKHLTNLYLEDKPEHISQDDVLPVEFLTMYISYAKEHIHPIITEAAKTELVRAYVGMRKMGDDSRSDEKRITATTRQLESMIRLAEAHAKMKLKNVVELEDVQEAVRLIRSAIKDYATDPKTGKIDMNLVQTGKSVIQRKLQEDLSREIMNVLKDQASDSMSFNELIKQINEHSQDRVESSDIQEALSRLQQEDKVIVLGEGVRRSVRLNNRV

Mcm2 = biological target: T2, Mcm2 (S. cerevisiae, UniProt P29469 1-868)
T2 construct: Mcm2, S. cerevisiae; Subunit as it stands in the DH of the cryo-EM structures; also called Mcm2 subunit; source: S. cerevisiae, overexpressed as Mcm2-7-Cdt1, purified; in the DNA-loaded double hexamer
T2 sequence: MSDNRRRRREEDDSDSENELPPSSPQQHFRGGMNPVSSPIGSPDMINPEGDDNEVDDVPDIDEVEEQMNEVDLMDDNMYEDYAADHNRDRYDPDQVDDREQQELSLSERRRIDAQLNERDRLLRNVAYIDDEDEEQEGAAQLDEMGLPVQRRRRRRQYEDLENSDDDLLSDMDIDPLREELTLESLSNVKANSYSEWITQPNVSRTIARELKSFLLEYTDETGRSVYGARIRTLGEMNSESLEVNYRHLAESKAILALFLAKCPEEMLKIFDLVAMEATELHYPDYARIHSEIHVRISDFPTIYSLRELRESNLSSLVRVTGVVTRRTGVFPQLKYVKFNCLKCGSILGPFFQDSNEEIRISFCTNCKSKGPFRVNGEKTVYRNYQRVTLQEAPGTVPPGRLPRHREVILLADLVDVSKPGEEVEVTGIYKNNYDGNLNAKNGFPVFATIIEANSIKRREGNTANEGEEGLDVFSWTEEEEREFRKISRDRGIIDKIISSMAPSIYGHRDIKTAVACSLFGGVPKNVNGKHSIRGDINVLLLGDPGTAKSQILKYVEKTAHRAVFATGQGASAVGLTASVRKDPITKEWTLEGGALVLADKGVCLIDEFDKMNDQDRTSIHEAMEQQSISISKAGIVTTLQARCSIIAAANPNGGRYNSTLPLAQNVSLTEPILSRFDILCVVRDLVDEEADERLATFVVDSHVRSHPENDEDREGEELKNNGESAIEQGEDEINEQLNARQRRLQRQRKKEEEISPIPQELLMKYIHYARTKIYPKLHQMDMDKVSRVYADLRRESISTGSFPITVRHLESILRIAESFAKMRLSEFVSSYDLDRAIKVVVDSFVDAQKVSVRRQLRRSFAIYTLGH

Dbf4 = biological target: B1
Mcm3 = biological target: T3, Mcm3 (S. cerevisiae, UniProt P24279 1-971)
T3 construct: Mcm3, S. cerevisiae; also called Mcm3 subunit; source: S. cerevisiae, overexpressed as Mcm2-7-Cdt1, purified; in the DNA-loaded double hexamer
T3 sequence (P24279 whole entry): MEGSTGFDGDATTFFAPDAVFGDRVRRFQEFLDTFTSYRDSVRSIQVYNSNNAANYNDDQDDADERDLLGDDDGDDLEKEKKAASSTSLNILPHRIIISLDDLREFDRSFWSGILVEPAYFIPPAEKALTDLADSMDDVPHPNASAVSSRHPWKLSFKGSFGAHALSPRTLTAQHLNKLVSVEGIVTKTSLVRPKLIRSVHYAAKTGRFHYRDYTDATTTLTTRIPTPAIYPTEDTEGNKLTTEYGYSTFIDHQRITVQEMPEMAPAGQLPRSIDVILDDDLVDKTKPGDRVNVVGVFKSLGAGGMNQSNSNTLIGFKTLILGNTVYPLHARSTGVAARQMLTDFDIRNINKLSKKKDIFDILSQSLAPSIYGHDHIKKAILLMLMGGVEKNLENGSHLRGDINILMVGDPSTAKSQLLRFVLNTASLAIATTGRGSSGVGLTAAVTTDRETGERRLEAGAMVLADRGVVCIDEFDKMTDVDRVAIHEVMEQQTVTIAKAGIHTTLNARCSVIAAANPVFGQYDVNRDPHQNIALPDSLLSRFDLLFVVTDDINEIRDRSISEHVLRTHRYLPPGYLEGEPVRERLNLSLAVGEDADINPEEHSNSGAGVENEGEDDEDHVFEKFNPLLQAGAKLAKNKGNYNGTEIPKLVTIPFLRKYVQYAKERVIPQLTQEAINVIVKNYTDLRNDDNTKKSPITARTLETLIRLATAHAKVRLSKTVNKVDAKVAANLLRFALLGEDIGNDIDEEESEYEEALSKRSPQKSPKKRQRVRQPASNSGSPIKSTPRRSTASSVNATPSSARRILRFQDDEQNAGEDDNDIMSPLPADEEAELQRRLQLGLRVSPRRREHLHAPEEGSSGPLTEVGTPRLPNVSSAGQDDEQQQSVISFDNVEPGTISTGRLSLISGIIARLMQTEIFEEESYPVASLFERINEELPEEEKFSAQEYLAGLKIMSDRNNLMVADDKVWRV

B1: binds (Mcm4); binds (Mcm2).

B2: Cdc7 (enzyme, S. cerevisiae)
chain: MTSKTKNIDDIPPEIKEEMIQLYHDLPGIENEYKLIDKIGEGTFSSVYKAKDITGKITKKFASHFWNYGSNYVALKKIYVTSSPQRIYNELNLLYIMTGSSRVAPLCDAKRVRDQVIAVLPYYPHEEFRTFYRDLPIKGIKKYIWELLRALKFVHSKGIIHRDIKPTNFLFNLELGRGVLVDFGLAEAQMDYKSMISSQNDYDNYANTNHDGGYSMRNHEQFCPCIMRNQYSPNSHNQTPPMVTIQNGKVVHLNNVNGVDLTKGYPKNETRRIKRANRAGTRGFRAPEVLMKCGAQSTKIDIWSVGVILLSLLGRRFPMFQSLDDADSLLELCTIFGWKELRKCAALHGLGFEASGLIWDKPNGYSNGLKEFVYDLLNKECTIGTFPEYSVAFETFGFLQQELHDRMSIEPQLPDPKTNMDAVDAYELKKYQEEIWSDHYWCFQVLEQCFEMDPQKRSSAEDLLKTPFFNELNENTYLLDGESTDEDDVVSSSEADLLDKDVLLISE
notes: Cdc7, S. cerevisiae; Subunit as it stands in DDK in the DH-DDK cryo-EM structure; also called Cdc7 catalytic subunit of DDK; source: S. cerevisiae, overexpressed with CBP-Dbf4, purified as DDK
B2: binds (Dbf4); binds (Mcm4).

B3: Mcm7 (natural protein, S. cerevisiae)
chain: MSAALPSIQLPVDYNNLFNEITDFLVTFKQDTLSSDATRNENEDENLDAENIEQHLLEKGPKYMAMLQKVANRELNSVIIDLDDILQYQNEKFLQGTQADDLVSAIQQNANHFTELFCRAIDNNMPLPTKEIDYKDDVLDVILNQRRLRNERMLSDRTNEIRSENLMDTTMDPPSSMNDALREVVEDETELFPPNLTRRYFLYFKPLSQNCARRYRKKAISSKPLSVRQIKGDFLGQLITVRGIITRVSDVKPAVEVIAYTCDQCGYEVFQEVNSRTFTPLSECTSEECSQNQTKGQLFMSTRASKFSAFQECKIQELSQQVPVGHIPRSLNIHVNGTLVRSLSPGDIVDVTGIFLPAPYTGFKALKAGLLTETYLEAQFVRQHKKKFASFSLTSDVEERVMELITSGDVYNRLAKSIAPEIYGNLDVKKALLLLLVGGVDKRVGDGMKIRGDINVCLMGDPGVAKSQLLKAICKISPRGVYTTGKGSSGVGLTAAVMKDPVTDEMILEGGALVLADNGICCIDEFDKMDESDRTAIHEVMEQQTISISKAGINTTLNARTSILAAANPLYGRYNPRLSPLDNINLPAALLSRFDILFLMLDIPSRDDDEKLAEHVTYVHMHNKQPDLDFTPVEPSKMREYIAYAKTKRPVMSEAVNDYVVQAYIRLRQDSKREMDSKFSFGQATPRTLLGIIRLSQALAKLRLADMVDIDDVEEALRLVRVSKESLYQETNKSKEDESPTTKIFTIIKKMLQETGKNTLSYENIVKTVRLRGFTMLQLSNCIQEYSYLNVWHLINEGNTLKFVDDGTMDTDQEDSLVSTPKLAPQTTASANVSAQDSDIDLQDA
notes: Mcm7, S. cerevisiae; also called Mcm7 subunit; source: S. cerevisiae, overexpressed as Mcm2-7-Cdt1, purified; in the DNA-loaded double hexamer
B3: binds (Mcm3); binds (Mcm4).

Source: article PMC8770131, “Structural mechanism for the selective phosphorylation of DNA-loaded MCM double hexamers by the Dbf4-dependent kinase” (Nature Structural & Molecular Biology, 2021)
